How the values were obtained:
Conditions in all cases: both partners purified
Smc1 = molecular target: T1, Smc1 (S. cerevisiae (budding yeast), UniProt P32908 1-1225); assay: cross-linking; CLMS with sulfo-SDA; cohesin, Tof1-Csm3 and Chl1 with or without Mrc1 at 300-350 nM, 30 °C 5 min, cross-linker 2 h at 4 °C, UV 365 nm; LC-MS/MS, 1% FDR at residue-pair level; two samples merged
T1 construct: Smc1, budding yeast; the Smc1 chain of m1; Stood in the cross-linking sample as a chain of cohesin; source: purified as part of cohesin, as previously described (Minamino et al. 2018)
T1 sequence (looked up): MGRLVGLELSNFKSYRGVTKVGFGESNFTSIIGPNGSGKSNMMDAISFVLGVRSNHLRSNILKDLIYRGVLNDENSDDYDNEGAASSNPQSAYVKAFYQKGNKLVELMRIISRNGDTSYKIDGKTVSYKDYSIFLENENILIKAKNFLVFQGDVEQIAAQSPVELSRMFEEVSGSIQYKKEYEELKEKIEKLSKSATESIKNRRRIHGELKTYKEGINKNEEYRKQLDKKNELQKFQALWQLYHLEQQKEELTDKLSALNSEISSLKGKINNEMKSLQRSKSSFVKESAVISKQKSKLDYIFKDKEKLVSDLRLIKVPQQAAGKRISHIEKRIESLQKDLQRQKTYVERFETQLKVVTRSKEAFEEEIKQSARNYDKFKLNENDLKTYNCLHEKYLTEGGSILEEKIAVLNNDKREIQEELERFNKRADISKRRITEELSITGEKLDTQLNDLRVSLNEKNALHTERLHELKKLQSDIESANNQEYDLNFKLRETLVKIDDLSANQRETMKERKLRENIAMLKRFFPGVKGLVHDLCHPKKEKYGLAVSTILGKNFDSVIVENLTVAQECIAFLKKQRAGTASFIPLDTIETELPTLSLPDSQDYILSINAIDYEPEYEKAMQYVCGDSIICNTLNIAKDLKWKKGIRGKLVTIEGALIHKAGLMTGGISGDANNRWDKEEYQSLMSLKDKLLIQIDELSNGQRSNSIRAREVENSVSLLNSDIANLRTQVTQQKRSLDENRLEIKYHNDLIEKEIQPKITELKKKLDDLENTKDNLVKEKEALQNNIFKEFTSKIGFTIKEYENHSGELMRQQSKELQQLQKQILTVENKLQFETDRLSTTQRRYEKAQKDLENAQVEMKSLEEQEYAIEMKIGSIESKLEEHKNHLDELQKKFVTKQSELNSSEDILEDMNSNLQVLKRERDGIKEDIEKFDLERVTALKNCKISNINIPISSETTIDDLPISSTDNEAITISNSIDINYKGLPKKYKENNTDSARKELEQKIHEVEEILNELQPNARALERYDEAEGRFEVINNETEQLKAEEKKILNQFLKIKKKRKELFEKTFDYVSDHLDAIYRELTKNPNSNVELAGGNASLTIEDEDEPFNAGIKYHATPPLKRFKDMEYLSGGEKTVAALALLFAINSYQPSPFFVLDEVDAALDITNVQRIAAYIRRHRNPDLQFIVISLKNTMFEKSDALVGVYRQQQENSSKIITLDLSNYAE

Tof1-Csm3 complex = molecular target: T2, Tof1-Csm3 complex (S. cerevisiae (budding yeast), UniProt P53840 1-1238; Q04659 1-317); assay: pull-down; Flag-tagged Mrc1 (200-600 nM) held on anti-Flag M2 magnetic beads; with or without a first incubation with Tof1-Csm3, then cohesin (tetramer, trimer or Smc1-Smc3 dimer) or GINS; interaction buffer with 100 mM potassium glutamate; elution with 3x Flag peptide or SDS sample buffer; Coomassie staining; benzonase or NaCl added where indicated
T2 construct: Tof1, budding yeast; Csm3, budding yeast; Held on calmodulin dynabeads when used as bait; source: purified as previously described (Yeeles et al. 2017)
T2 sequence (P53840 whole entry, chain 1 of 2): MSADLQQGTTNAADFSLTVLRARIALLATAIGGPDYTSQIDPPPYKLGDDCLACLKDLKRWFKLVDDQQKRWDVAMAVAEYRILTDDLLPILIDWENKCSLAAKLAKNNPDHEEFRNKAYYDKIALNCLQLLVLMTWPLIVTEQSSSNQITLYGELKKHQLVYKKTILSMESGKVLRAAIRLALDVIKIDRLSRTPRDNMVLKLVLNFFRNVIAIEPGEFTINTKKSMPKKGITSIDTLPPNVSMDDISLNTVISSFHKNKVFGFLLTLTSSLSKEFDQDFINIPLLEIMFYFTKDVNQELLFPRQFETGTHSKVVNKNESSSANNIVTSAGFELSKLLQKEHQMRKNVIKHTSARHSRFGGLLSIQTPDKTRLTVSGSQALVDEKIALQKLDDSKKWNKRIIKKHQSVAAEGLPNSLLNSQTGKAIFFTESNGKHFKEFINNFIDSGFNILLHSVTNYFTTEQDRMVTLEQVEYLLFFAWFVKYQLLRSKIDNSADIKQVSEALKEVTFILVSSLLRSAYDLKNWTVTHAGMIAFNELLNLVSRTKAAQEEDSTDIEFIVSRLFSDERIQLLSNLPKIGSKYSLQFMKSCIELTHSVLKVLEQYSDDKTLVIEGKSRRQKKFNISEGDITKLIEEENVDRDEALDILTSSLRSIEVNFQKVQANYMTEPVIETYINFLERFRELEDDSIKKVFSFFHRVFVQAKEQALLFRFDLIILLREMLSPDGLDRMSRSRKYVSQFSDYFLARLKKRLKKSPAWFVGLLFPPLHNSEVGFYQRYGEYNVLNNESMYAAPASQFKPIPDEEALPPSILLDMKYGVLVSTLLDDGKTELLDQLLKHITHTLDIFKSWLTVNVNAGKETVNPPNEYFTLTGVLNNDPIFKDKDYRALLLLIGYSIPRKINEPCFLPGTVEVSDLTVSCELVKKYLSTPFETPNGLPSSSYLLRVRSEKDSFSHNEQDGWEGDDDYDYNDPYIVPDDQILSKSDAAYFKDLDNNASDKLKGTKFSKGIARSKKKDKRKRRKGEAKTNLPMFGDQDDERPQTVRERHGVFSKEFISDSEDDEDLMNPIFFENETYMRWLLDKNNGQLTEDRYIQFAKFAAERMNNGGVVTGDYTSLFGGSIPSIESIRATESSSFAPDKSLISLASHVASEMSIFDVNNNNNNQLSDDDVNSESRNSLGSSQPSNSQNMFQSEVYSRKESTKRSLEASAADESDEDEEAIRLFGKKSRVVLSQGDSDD
T2 sequence (Q04659 whole entry, chain 2 of 2): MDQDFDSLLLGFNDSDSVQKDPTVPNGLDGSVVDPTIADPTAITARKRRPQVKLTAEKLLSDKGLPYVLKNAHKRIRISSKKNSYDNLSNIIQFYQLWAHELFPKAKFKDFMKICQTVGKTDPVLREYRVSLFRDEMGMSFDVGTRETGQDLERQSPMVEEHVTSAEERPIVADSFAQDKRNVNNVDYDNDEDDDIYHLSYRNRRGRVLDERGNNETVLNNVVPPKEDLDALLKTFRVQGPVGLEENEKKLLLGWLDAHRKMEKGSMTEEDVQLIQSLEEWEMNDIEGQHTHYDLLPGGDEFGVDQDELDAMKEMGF

[1] = molecular target: T3, cohesin trimer (Smc1-Smc3-Scc1) (S. cerevisiae (budding yeast), UniProt P32908 1-1225; P47037 1-1230; Q12158 1-566); assay: as above
T3 construct: Smc1, cohesin subunit, budding yeast; Smc3, cohesin subunit, budding yeast; Scc1, cohesin subunit, budding yeast; source: purified following the same protocol as cohesin tetramers (IgG agarose, 3C protease cleavage); copies: + +
T3 sequence (P47037 whole entry, chain 2 of 3, one chain of several): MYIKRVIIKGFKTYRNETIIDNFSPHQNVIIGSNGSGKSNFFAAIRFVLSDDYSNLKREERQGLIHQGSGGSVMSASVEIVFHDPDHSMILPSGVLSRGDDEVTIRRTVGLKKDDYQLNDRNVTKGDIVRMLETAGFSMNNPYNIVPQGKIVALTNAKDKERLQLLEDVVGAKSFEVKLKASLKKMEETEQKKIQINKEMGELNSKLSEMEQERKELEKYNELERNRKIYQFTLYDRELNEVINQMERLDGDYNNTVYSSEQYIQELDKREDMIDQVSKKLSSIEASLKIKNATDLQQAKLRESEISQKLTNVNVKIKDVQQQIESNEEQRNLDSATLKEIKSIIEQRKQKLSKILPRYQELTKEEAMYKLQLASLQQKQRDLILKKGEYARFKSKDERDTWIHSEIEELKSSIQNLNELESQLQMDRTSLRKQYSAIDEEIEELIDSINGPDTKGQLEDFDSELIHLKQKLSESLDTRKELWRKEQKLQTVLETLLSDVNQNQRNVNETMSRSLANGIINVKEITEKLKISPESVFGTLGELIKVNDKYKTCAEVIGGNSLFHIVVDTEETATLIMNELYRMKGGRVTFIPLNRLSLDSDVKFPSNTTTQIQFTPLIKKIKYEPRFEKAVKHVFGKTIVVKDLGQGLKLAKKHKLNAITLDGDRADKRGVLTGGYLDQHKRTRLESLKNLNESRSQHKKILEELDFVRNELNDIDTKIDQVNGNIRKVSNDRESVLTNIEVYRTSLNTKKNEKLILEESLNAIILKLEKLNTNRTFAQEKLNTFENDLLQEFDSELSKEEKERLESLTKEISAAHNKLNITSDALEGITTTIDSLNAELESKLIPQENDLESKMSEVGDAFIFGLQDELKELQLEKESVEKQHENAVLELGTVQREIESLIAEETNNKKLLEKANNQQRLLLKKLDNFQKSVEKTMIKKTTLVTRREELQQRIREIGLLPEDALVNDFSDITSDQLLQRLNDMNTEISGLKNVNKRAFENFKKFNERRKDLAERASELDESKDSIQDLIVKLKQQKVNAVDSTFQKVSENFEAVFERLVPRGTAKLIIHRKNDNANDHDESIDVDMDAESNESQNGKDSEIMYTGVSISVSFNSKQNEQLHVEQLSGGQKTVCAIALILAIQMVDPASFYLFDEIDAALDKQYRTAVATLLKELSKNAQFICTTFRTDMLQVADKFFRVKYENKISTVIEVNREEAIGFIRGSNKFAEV
T3 sequence (Q12158 whole entry, chain 3 of 3, one chain of several): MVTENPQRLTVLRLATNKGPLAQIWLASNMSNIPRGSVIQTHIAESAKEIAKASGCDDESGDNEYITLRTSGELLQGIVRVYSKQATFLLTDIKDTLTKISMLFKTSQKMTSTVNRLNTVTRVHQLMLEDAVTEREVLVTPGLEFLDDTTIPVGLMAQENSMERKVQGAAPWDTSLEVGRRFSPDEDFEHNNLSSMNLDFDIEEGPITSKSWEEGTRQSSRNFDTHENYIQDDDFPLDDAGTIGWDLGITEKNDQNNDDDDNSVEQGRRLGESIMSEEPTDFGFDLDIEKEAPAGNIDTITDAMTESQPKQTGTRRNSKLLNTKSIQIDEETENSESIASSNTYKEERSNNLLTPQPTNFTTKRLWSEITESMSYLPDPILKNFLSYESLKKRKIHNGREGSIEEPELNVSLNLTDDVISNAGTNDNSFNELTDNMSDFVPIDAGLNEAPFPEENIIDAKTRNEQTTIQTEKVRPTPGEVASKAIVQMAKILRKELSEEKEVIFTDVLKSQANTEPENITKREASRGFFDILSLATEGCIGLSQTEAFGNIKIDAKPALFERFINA

Smc1-Smc3 dimer = molecular target: T4, Smc1-Smc3 dimer (S. cerevisiae (budding yeast), UniProt P32908 1-1225; P47037 1-1230); assay: as above
T4 construct: Smc1, cohesin subunit, budding yeast; Smc3, cohesin subunit, budding yeast; also called SMC dimer; SMC dimers (Smc1-Smc3); source: purified following the same protocol as cohesin tetramers (IgG agarose, 3C protease cleavage); not shown: Protein A, C-terminal, cleaved
T4 sequence (P47037 whole entry, chain 2 of 2, one chain of several): as the sequence (P47037 whole entry, chain 2 of 3, one chain of several) above

Measured: binding result

B1: Mrc1 (natural protein, S. cerevisiae (budding yeast), UniProt P25588 1-1096, looked up)
chain: MDDALHALSSLTAKKRTTTYKKVAVPILDENDNTNGNGPNDIDNPPELTGNGFLFANATLNRVKNRLEGKKAPEQNHNNGKDRSENSLPTQLISNLYDGGEELEKSEVKDNSYSEKNVSSSFTQTQRIPVSIQQDKVFNVPIHSVNDGKPTQLIKEDGLVNETSQALKTPLTTGRPGATQRIDSSGATSQTQPIKSIEPQSQIITTSSNHSNALSPKIPIIPTELIGTSPLFQSIQNRGPDTQMDVPPQTAHDEDKTQAIGIPQATHQEQKTQIDTVAQTLQDEVPHTLKIREIQSELASEDSKREKARNVEYKKPQKPIPTKKFFSKESFLADFDDSSSNEDDDIKLENAHPKPVQNDDELHENKSVELNLTDETRINEKRVPLLSSYANNLKREIDSSKCITLDLDSDSDEYGDDDMDSIKLSKDESVLPISQLSKATILNLKARLSKQNQKLSQRPNKSKDPKVDHNVLLNTLRKASRKQILDHQKEVIETKGLKLEDMAKEKEIVENLLEQEILRNKRIRQKEKRREKLEENDFQLNAHDSGSDSGSESSGFALSGNEIADYESSGSENDNRRESDSEKEDDEIILKQKKSHHVKHIINESDSDTEVEAKPKEKADESLPKRIAINLGHYGDNIGEDTDKFQETNVLDTQNIEEVMAERNTIENEVKDDVYVNEEADEAIRRQLIDKEKLQLKQKEKEHEAKIKELKKRGVTNFFEMEAEESEDEWHGIGGADGEGSDDYDSDLEKMIDDYSKNNFNPHEIREMLAAENKEMDIKMINKILYDIKNGGFRNKRAKNSLELELSDDDEDDVLQQYRLKRRELMRKRRLEIGDDAKLVKNPKSSAFFESMVEDIIEYKNPFGAEEEYNLDITSTATDLDTQDNSINVGDNTGNNEQKPVDQKNKKVIISEDFVQKSLSFLKSNNYEDFETDKELSRIQHGNDEAIEDLYTLKQNSSIKSFTNSQTDSTTSKTVNTIIDLEKRPEDEDEVENGDTSLVGVFKHPSIIKSFASRTDINDKFKEGNKTVKILKSYKTVGSSKASITYMGKTRKLIAPKRKTEGSHRYHHDHHNKKMKMKTKTKSNKLFESGQDSFDN
notes: Mrc1, budding yeast; also called Flag-tagged Mrc1; source: purified as previously described (Yeeles et al. 2017)
binds: Smc1 | Tof1-Csm3 complex | [1] | Smc1-Smc3 dimer
